Molecular target: Glutathione S-transferase (GST) (UniProt P08515 1-218)
Experiment: bead fluorescence, confocal microscopy; 37 °C; BB: 20 mM HEPES pH 7.4, 120 mM NaCl, 5 mM KCl, 2 mM MgCl2; wash BB + 0.05% Tween 20; 37 °C, 40 min (section 2.1 gives another binding buffer: DPBS, 5 mM MgCl2)
Conditions: protein: recombinant, tags: biotinylated, on streptavidin agarose beads, chain copies: 2

Sequence of Glutathione S-transferase (GST) (P08515 whole entry): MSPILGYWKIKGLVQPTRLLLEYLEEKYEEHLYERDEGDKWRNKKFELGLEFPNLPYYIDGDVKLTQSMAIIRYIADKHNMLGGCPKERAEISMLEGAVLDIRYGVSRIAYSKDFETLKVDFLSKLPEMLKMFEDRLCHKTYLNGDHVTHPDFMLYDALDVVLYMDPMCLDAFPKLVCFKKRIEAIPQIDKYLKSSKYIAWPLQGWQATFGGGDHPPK

Binder	Kd (label: FAM (also called AF488), two small stem-loops with a large loop (Mfold))	Kd (label: FAM)
Seq3 (ssDNA) DNA: AGCGTCGGATACCACTACTATGCCGGTCGGGGGTTGGGGATCTCTCTTGGGGGAGGGTTATCATGGAGTTCGTGGTCAG	34 ± 5.6 nM	–
TGCCGGTCGGGGGTTGGGGATCTCTCTTGGGGGAGGGTT (ssDNA) [Seq3-3]	–	268 ± 89.4 nM
Seq3-1 (ssDNA) DNA: TGCCGGTCGGGGGTTGGGGATCTCTCTTGGGGGAGGGTTATCATGGAGTTCGTGGTCAG	–	29.3 ± 4.8 nM
Seq3-2 (ssDNA) DNA: AGCGTCGGATACCACTACTATGCCGGTCGGGGGTTGGGGATCTCTCTTGGGGGAGGGTT	–	118 ± 21.7 nM

— article PMC11505714, “A Double-Stranded Aptamer for Highly Sensitive Fluorescent Detection of Glutathione S-Transferases”
